# Assay results published in the supplement of paper PMC9170038.
# Tested on: MS2 coat protein
# Test: apparent KD of MS2 coat protein; designed switch direction (-1 OFF switch, 1 ON switch): -1; higher = weaker reporter binding
# Method in brief: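 The buffer was Tris-HCl pH 7.5 with KCl, MgCl2, BSA, DTT, tRNA and Tween-20. In it, SNAP-549-labelled MS2 coat protein was titrated in doubling steps from 0.7 or 1.5 nM to 3 µM over chip-bound RNA switches transcribed by stalled E. coli RNA polymerase on Illumina chips. Apparent KD is the per-design median over clusters of curve fits to normalised fluorescence.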
# [1] = Eterna round: R95, input ligand: microRNA oligo, concentration not stated
# [2] = Eterna round: R95, input ligand: FMN 200 uM
# [3] = Eterna round: R95, input ligand: none
# [4] = input ligand: microRNA oligo, concentration not stated
Sequence,apparent KD of MS2 coat protein [1] [nM],apparent KD of MS2 coat protein (input ligand: FMN 200 uM) [nM],apparent KD of MS2 coat protein (input ligand: none) [nM],apparent KD of MS2 coat protein [2] [nM],apparent KD of MS2 coat protein [3] [nM],apparent KD of MS2 coat protein [4] [nM]
AAUAACAGAGGAUAUACUGUUUUAUGUGUUUGUUAUUUUGAACAUGAGGAUCACCCAUGUAGAAGGCUGAAUGA [JMF 64] (puzzle: Exclusion 2),27.1,–,–,–,–,–
AAUAACAGAGGAUAUACUGUUUUAUGUGUUUGUUGUUUUAAACAUGAGGAUCACCCAUGUAGAAGGCUGAAUAA [JMF 19] (puzzle: Exclusion 2),18.4,–,–,–,–,–
"AAUAACAUGUUGAUCAAAUACAUGAGGAUCACCCAUGUAUGCUUUUUGUUCGAUAAGAUCAACUAAUAAUAAUAAUA [StovNew/1-C] (Eterna round: R97, puzzle: Sensor, turn-off variant 1)",–,12.2,12.6,–,–,–
"AAUAAGCGAGGAUAUACACCCGGAAAACGGGAACGGGCGAGACAUGAGGAUCACCCAUGUAGAAGGCGCGUCAA [Sogexe] (Eterna round: R97, puzzle: Exclusion 2)",–,28,77.9,–,–,–
"AAUAAGCUAGGAUAUACAUGAGGAUCACCCAUGUAUGACGAUACAGAAUCUGGCCCGAGUAGAAGGAGCAAACU [EX3 B.7] (Eterna round: R97, puzzle: Exclusion 3)",–,23.2,17.4,–,–,–
AAUAAGCUAGGAUAUACAUGAGGAUCACCCAUGUGAGGGCACCGCCGGCGCGGGCCCGGUAGAAGGAGUCAUAA [Exc;s3-V] (puzzle: Exclusion 3),34.3,–,–,22.1,27.7,–
AAUAAUAAGGAGGAUAUCGUAUGCGAAAGCAUACGAGAAGGCCUAACAUGAGGAUCACCCAUGUUCCUCAAUAA [Mat - Exclusion 6 - Eli Mod - D55] (puzzle: Exclusion 6),254,–,–,659,259,–
"AAUAAUAAUGUCAGGAUAUCUAGAGCUGCGGCUCUAGAGAAGGGACAUGAGGAUCACCCAUGUCACUCAAUAAU [BmEx4/3-C5] (Eterna round: R97, puzzle: Brourd's mod of Exclusion 4)",–,22,15.1,–,–,–
"AAUAAUCAUGUAGGAUAUGCGUGGCAAAGCUAUGCAGAAGGACAUGAGGAUCACCCAUGUUCUAGCGUCUGAAAACAGAUGCUA [Mat - Exclusion NG 1 - Mod of JL - D83] (Eterna round: R96, puzzle: Exclusion NG 1)",–,451,44.3,–,–,29.5
"AAUAAUUGUGACUUGGGUGACAUGAGGAUCACCCAUGUCACAAGCUUGUUGCUCGCCUUAUAAUUAACCCAUGUCAC [LRO Sensor-off var1-26 mod of Stov1-13-A1 by Brourd] (Eterna round: R97, puzzle: Sensor, turn-off variant 1)",–,70.5,80.6,–,–,–
"AAUAAUUGUGACUUGGGUGACAUGAGGAUCACCCAUGUCACAAGCUUGUUGCUCGUCUUAUAAUUAACCCAUGUCAC [LRO Sensor-off var1-25 mod of Stov1-13-A1 by Brourd] (Eterna round: R97, puzzle: Sensor, turn-off variant 1)",–,48.1,40.9,–,–,–
"AAUACAAGCAAGAUCCUAAACAUGAGGAUCACCCAUGUGCUCGUCUUAUAAAGUACUAUCACGAAAGUGAUAGUACA [Sensor 3, v1 - 63] (puzzle: Sensor v3, turn-off variant 1)",438,–,–,213,234,–
"AAUACAAGUAAGAUCCUAAACAUGAGGAUCACCCAUGUGCUCGUCUUAUAAAGUACUAUCACGAAAGUGAUAGUACA [Sensor 3, v1 - 66] (puzzle: Sensor v3, turn-off variant 1)",314,–,–,48.7,37.5,–
"AAUACUAACAGCUGACUGUUAGUACUGUAGGUUUGUGUUACAUGAGGAUCACCCAUGUCCUCAUAGGCUCGUCUUGU [Mat - Sensor v3 - Turn-off var 2 - D98] (puzzle: Sensor v3, turn-off variant 2)",322,–,–,586,697,–
"AAUAUAAGCAAGAUCCUAAACAUGAGGAUCACCCAUGUGCUCGUCUUAUAAAGUACUAUCACGAAAGUGAUAGUACA [Sensor 3, v1 - 65] (puzzle: Sensor v3, turn-off variant 1)",398,–,–,111,127,–
"AAUAUGUGAGGAUAUUAGUUGUACGUCAAUAGACGUAUAAGUGAGAAGGCACAUGAGGAUCACCCAUGUUCCUG [Omei Ex4 Mod of Mat's R95 mod of Omei v3] (Eterna round: R97, puzzle: Exclusion 4)",–,98.2,23.7,–,–,–
"AAUAUUUUAGGAUAUGGCGGAAUAGACAUGAGGAUCACCCAUGUUAGAGGCGUGGUGAAGUUAGAAGGGAGGUGUU [Eternabot (L1) Solution 6] (Eterna round: R97, puzzle: Exclusion 5)",–,60,113,–,–,–
AAUCAGCGAGGAUAUACAGAUUCUGGGUGCGGCUCGGCGAGACAUGAGGAUCACCCAUGUAGAAGGUGCUAGCC [Teoredre] (puzzle: Exclusion 2),29.2,–,–,–,–,–

Sequence,apparent KD of MS2 coat protein [1] [nM],apparent KD of MS2 coat protein (input ligand: FMN 200 uM) [nM],apparent KD of MS2 coat protein (input ligand: none) [nM],apparent KD of MS2 coat protein [2] [nM],apparent KD of MS2 coat protein [3] [nM],apparent KD of MS2 coat protein [4] [nM]
"AAUCAGUGUGUGAGGAUAUUGGUGGAAUGACUUAUUAAGAAGGCACAUGAGGAUCACCCAUGUGGGAAGUCACG [JR_BMEx4_Sub016] (Eterna round: R97, puzzle: Brourd's mod of Exclusion 4)",–,11.6,12.8,–,–,–
"AAUCAUGAACGAGCUUUUUACAUGAGGAUCACCCAUGUCCUCUGCUCGUCUUGUCUUGGGCUUUUUUUGGGUUCGGG [-22.4, -44.7 kcal, A 16%] (Eterna round: R97, puzzle: Sensor, turn-off variant 1)",–,320,355,–,–,–
AAUCCACAUGAGGAUCACCCAUGUCAGGAUAUCGCGCGCGCGUUUUCGGUCUUUCGCGCGAGAAGGGACGGCUG (puzzle: Exclusion 1),16.3,–,–,–,–,–
AAUCCACAUGAGGAUCACCCAUGUGAGGAUAUGAUACUAUGUACUUCGGUACAUAGUAUCAGAAGGCACGGAUC [Ex1-3: 53] (puzzle: Exclusion 1),29.9,–,–,–,–,–
"AAUGAUUGACGAGGAUAUUGUGGUAGAUCACGACGAGAAGGCGUUUGUCACAUGAGGAUCACCCAUGUGAGCCUUGUGGAUAGA [Ex NG1 #75] (Eterna round: R96, puzzle: Exclusion NG 1)",–,160,30.9,–,–,20.1
"AAUGAUUGACGAGGAUAUUGUGUUAGAUCACGACGAGAAGGCGUCUGUCACAUGAGGAUCACCCAUGUGAGCCUGGUGGAUAGA [Ex NG1 #78] (Eterna round: R96, puzzle: Exclusion NG 1)",–,82.6,50,–,–,35.1
"AAUGAUUGACGAGGAUAUUGUGUUAGAUCACGACGAGAAGGCGUUUGUCACAUGAGGAUCACCCAUGUGAGCCUUGUGGAUAGA [Ex NG1 #76] (Eterna round: R96, puzzle: Exclusion NG 1)",–,56.6,21.5,–,–,15.6
"AAUGCUGGUGUGAGGAUAUCAGCUGAAGAACAGAAUGAGAAGGCACAUGAGGAUCACCCAUGUAAAAGAAUAAA [Atbelaqu] (Eterna round: R97, puzzle: Brourd's mod of Exclusion 4)",–,35.9,25.6,–,–,–
AAUGUCUGAGGAUAUCGAUUAGUGUACAUGAGGAUCACCCAUGUUUUUAUUUGUAUAUUACGAGAAGGCAGUGGAA [JR_E5_Sub087] (puzzle: Exclusion 5),19.1,–,–,20.6,17.2,–
"AAUGUGUAAGGAUAUCCGAAAAGCGAGCGAAAGCGAGCGAAGGAGAAGGUACAUGAGGAUCACCCAUGUAAGGG [AK-MS2ROC-r4-exclusion4-11.6] (Eterna round: R97, puzzle: Exclusion 4)",–,71.5,530,–,–,–
"AAUUAACAUGUAGGAUAUCUGCACGAUUAGUGCAGAGAAGGACAUGAGGAUCACCCAUGUAUAGCGACUUCGGUCGCAAUAAUU [ENG1/2-B1] (Eterna round: R96, puzzle: Exclusion NG 1)",–,161,80.6,–,–,69.5
"AAUUAAUGAGGAUAUACAGUGUAAAACAUGAGGAUCACCCAUGUUCUUCAAUUAGUAUUUGUAGAAGGCAUAGGUA [JR_Ex5_Sub093] (Eterna round: R97, puzzle: Exclusion 5)",–,32,61.4,–,–,–
"AAUUAGCAAGCGAGGUCCCACAUGAGGAUCACCCAUGUGCUCGUCUUAUAAGGUACUGUGACGAGAGUCACGGUACC [Mat - Sensor, turn-off var - Eli Mod - D35] (Eterna round: R97, puzzle: Sensor, turn-off variant 1)",–,13.8,15.2,–,–,–
"AAUUAGUAUGUGAGGAUAUUGAUGAGAUGAUGGUUUAAGAAGGCACAUGAGGAUCACCCAUGUAGGAAAUAACG [JR_BMEx4_Sub005] (Eterna round: R97, puzzle: Brourd's mod of Exclusion 4)",–,37.8,24.4,–,–,–
"AAUUAGUGAGGAUAUUUUAACAGUGGUAGUAGACAGUGGAUGAAGAAGGCACAUGAGGAUCACCCAUGUUAUAA [EX4 #55] (Eterna round: R97, puzzle: Exclusion 4)",–,164,147,–,–,–
AAUUCACAUGAGGAUCACCCAUGUCAGGAUAUGCUGACGCGGGUUUCGGUGCGUGUUGGCAGAAGGGACAGCUA (puzzle: Exclusion 1),144,–,–,–,–,–
AAUUCACAUGAGGAUCACCCAUGUCAGGAUAUGGUGACGCGGGUUUCGGUGCGUGUUGCCAGAAGGGACAGCUA (puzzle: Exclusion 1),81.3,–,–,–,–,–
